Drawing on patent EP4722251, this text covers Koff Ratio (pH6.0/pH7.4), koff and EC50 for 2 substances.

Assay [1] addresses Recombinant human TFPI protein. Kind of assay: BLI; fit kinetic; antibody as IgG; antigen as not_told; on the surface: binder; avidity not_told. To be noted: 30.0 °C; for koff: pH 7.4. On the technique in general: BLI is a label-free optical method that tracks binding on a fibre tip over time.
A further assay has as its target Human TFPI/His. Kind of assay: ELISA; fit not_stated; antibody as IgG; antigen as monomer; on the surface: target; avidity possible.

For orientation: koff means the rate constant with which the complex falls apart. A word on the EC50: it is the concentration that produces a half-maximal response. Higher therefore signals lower potency in that assay. As for Concizumab, the Koff Ratio (pH6.0/pH7.4) in assay [1] (pH 6.0, second pH 7.4) was determined as 0.9. Moreover, the koff in assay [1] was determined as 4.01e-07 s⁻¹; in assay [1] (second pH 6.0), 3.6e-07 s⁻¹. Moreover, the EC50 in the assay with Human TFPI/His (pH 4.0) worked out at 16.5 ng/mL; with Human TFPI/His (pH 4.5), 4.94 ng/mL; with Human TFPI/His (pH 5.0) it was 4.83 ng/mL; in the assay with Human TFPI/His (pH 5.5), 5 ng/mL; with Human TFPI/His (pH 6.0) it was 6.1 ng/mL; in the assay with Human TFPI/His (pH 6.5) it was 4.9 ng/mL. The substance also displayed an EC50 with Human TFPI/His (pH 7.4) of 4.25 ng/mL.
As to Marstacimab, the EC50 with Human TFPI/His (pH 4.0) was 5.87 ng/mL; with Human TFPI/His (pH 4.5), 3.15 ng/mL; with Human TFPI/His (pH 5.0), 3.97 ng/mL; with Human TFPI/His (pH 5.5), 2.18 ng/mL; with Human TFPI/His (pH 6.0) it was 3.19 ng/mL; with Human TFPI/His (pH 6.5) it was 3.87 ng/mL. The substance further registered an EC50 with Human TFPI/His (pH 7.4) of 4.01 ng/mL.
